The results in this text go back to paper PMC8730436.

By Kd is commonly meant the constant that tells how readily two partners part at equilibrium.

This data set relates to RplI (ribosomal large subunit protein L9) (Pseudomonas aeruginosa mPAO1). In words: MST.

-24 nt-exsA RNA came in with a Kd of 529 nM.
